Results reported in PMC4627819, “Bacillus subtilis Bactofilins Are Essential for Flagellar Hook- and Filament Assembly and Dynamically Localize into Structures of Less than 100 nm Diameter underneath the Cell Membrane” (PLoS ONE, 2015).

Target: the molecule itself
Experiment: SEC; analytical gel filtration of the purified protein on its own; S200/26-60 column, 20 mM HEPES-Na pH 7.5, 250 mM NaCl, 10 mM KCl, 10 mM MgCl2; fractions analysed by SDS-PAGE

B1: BacE carrying a hexa-histidine tag (his6-yhbE) (natural protein, Bacillus subtilis, UniProt P39132 1-237, looked up)
chain: MDVVEKLVINGSGSSKGGTFQSVEINGSGTVAGDVECDTFSFNGNGKADGSVKAKAVTISGSGKIHGDVEAESIRMNGTGFIQGEVSAKQLKIAGSSTFGGTVKADGIDISGKAVMEADCETETFQSEGKCKISGLLNADQVIIKLSAGESYAREIGCRHLQVTCRKGMLTLLRLMPQPVLTAELIEGDVIELTNTKAKTVRGNKVIIGPDCQIETVEYSGDYTCDPSASVETSTKL
notes: Bactofilin BacE, product of yhbE, Bacillus subtilis; full-length yhbE cloned into pET16b or pET24d; source: E. coli BL21 (DE3); also coexpressed with untagged BacF, in cell extract
  binding result: binds

B2: BacF carrying a hexa-histidine tag (6-His-BacF) (natural protein, Bacillus subtilis, UniProt P39133 1-235, looked up)
chain: METTKLGNLKLYGAGHAAGGAYHNVSIKGEGIVGEGLSAVGCRIYGTGLFLGKAETERLRVLGESECKGDLTAGKINIYGTMKVSGSLQFDRFNLKGQTEIGGNMTGESCDVKGKLSVIGDCETEMFHVTGCVDVSGLLNSGEIKLGLSHDISHVQEIGGTTITVKRRASFFSRKKGKLIADVIEGDRVYLENTEAAVVRGKEVIIGPGCSIGTIEYEYKCECDPHSQIKEKTKL
notes: Bactofilin BacF, product of yhbF, Bacillus subtilis; full-length yhbF cloned into pET16b or pET24d; also called YhbF; his6-yhbF; source: E. coli BL21 (DE3); also coexpressed with untagged BacE, in cell extract
  binding result: binds
